Experimental data taken from the supplement of paper PMC10126150.
± gives the standard deviation of the averaged measurements.

Test system: ATP
Assay: switch fluorescence ratio, 500 uM ATP over buffer (Cy3 cluster intensity, sum of 5 cycles each) (fold (ratio)); higher = stronger signal-on switching upon ATP binding; sequences stand for … in TCGTCGGCAGCGTCAGATGTGTATAAGAGACAGTTTTTTTTTTTTTTTTTTTTTTTTT…TC
Conditions: aptamer strand: ATP DNA aptamer (quencher-CACCTGGGGGAGTATTGCGGAGGAAGG + anchor), 100 nM annealed; ATP concentration: 500 uM
Outline: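 For every switch-domain sequence, the fluorescence ratio is the mean of per-cluster values, each being summed target-cycle Cy3 intensity over summed buffer-cycle Cy3 intensity. Clusters outside 100-1000 RFU were excluded. On a modified Illumina MiSeq flow-cell, the Cy3-labelled switching-strand clusters were annealed to 100 nM quencher-labelled ATP aptamer, imaged in selection buffer and then after 15 min with 500 uM ATP at 22 °C. Five such cycles were run, with NaOH stripping and re-annealing between them.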
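Also: ATP exposure 15 min at 22 °C before imaging.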

Sequence	switch fluorescence ratio
TAAATGGAAA	0.999 ± 0.051
TTAATGGTTT	1.11 ± 0.17
GTGGAGGGTT	1.03 ± 0.04
CAGGAGGATC	1.027 ± 0.0074
GAAGGGGGG	1.001 ± 0.0094
CAGTAGTTTT	1 ± 0.017
CCGGGGGTTT	1.036 ± 0.0054
ATCCAGTGTG	1.89 ± 0.2
TTTAATTGGG	0.983 ± 0.039
TGAGACTTAC	1.15 ± 0.06
TATCGACGTT	0.97 ± 0.038
TAGGGGCAGT	1.09 ± 0.14
GGTAGTGGGT	1 ± 0.013
GGATGAACGG	1.01 ± 0.079
CCTTGAACGG	0.9606 ± 0.005
AGAGTGCGTA	0.989 ± 0.023
GGGGAATGCT	1.01 ± 0.02
TTTGACAGGG	1.02 ± 0.014
CTTTGCGTTT	1.02 ± 0.093
TCCGAGGGTT	1.214 ± 0.011
AATAGCAACT	1.06 ± 0.029
TATCACTTTA	1.088 ± 0.0043
TTGTGCTGGT	1 ± 0.033
AGAGTATTTA	0.991 ± 0.011
GGAAAGATAG	1.022 ± 0.0046
TTGGGTACGG	1.03 ± 0.016

Sequence	switch fluorescence ratio
ATCAGGGTAC	1.05 ± 0.04
GACTGGCTT	0.9868 ± 0.0073
GGTAGGGGGT	1 ± 0.03
GGGGGGGCGA	0.987 ± 0.041
TTTAGTCACT	1.03 ± 0.022
ATGTAATTTC	0.9987 ± 0.0036
AGGTATTGG	1.008 ± 0.0055
TCGAAGCCGG	0.9774 ± 0.0061
TGGTTCCCTT	1.02 ± 0.07
GAGGGGGGTA	0.989 ± 0.02
AAATAAACGC	1.025 ± 0.0031
CGGTCCTTGG	0.99 ± 0.014
TCTTGGCGCC	0.97579 ± 0.00051
TTTGGGATT	0.999 ± 0.036
GAGTTTGTAT	0.961 ± 0.028
ATATTTTTAT	0.987 ± 0.0082
TTCGGGGGAG	0.979 ± 0.026
GGGCTAGTAC	1.13 ± 0.017
GGAAAATCAA	0.9812 ± 0.0078
TAAATTCAGA	0.994 ± 0.031
CTGTGGGTTC	1 ± 0.016
CGAAAGGAA	1.01 ± 0.011
TATGTCTTAT	0.983 ± 0.027
ATTTTGGTGA	1 ± 0.035
GACGGGGGGC	1.02 ± 0.018
GGTTGGGTTG	0.987 ± 0.019

Sequence	switch fluorescence ratio
GAGGTACTAG	1.02 ± 0.0023
AGCTAGCGAT	1.02 ± 0.034
AGGGGTGTGT	1.01 ± 0.019
AAATGGAGGG	1.01 ± 0.044
CGGGGCGGTT	1 ± 0.032
GACGGTCACT	1.21 ± 0.013
CCTATGAATG	0.987 ± 0.018
AGATAAAGGG	1.03 ± 0.017
AGGAGGGATG	0.985 ± 0.022
ATGATCCCGC	1.2 ± 0.019
CGGGTTGGTC	1.05 ± 0.041
CGTTTTTACA	1 ± 0.015
CCATTCTAGA	1.012 ± 0.0013
GGGGAATTTT	1.01 ± 0.037
AAGCGTTGTG	0.9984 ± 0.008
CGGAATGGTA	1.08 ± 0.067
GAATGAGATT	1.001 ± 0.0043
CCGTTCAGGG	1.001 ± 0.0045
GGGTCTGCGC	1.03 ± 0.024
ATTTGTCCGT	1.03 ± 0.018
GCAGGGTCTG	1.02 ± 0.083
TGGAGAAGAT	0.978 ± 0.03
TTATTTAATC	1.01 ± 0.038
TAGCGGGAGG	1.02 ± 0.024
ATTAGTAGAT	0.97 ± 0.013
CTCGGGGCGG	1.02 ± 0.037

Sequence	switch fluorescence ratio
CGTTGAATAA	1.017 ± 0.0089
TTGATCGATG	0.9886 ± 0.0068
GGGGGGGAAC	1 ± 0.04
GTGTGTGTAA	1.01 ± 0.045
GGGGGGTATC	1.01 ± 0.03
GTTAACCAGC	1.05 ± 0.016
AACTAGAGTT	0.99 ± 0.014
TGCCTGTCTA	1.02 ± 0.018
ATTATTACGG	1 ± 0.022
TGATAATTGT	1.01 ± 0.034
CGTGTGGCTG	0.992 ± 0.034
GATTGGGGTT	0.978 ± 0.036
GGCCTTAAGT	0.9912 ± 0.0025
GGGGTGGTAT	0.99 ± 0.044
TCTATGACAA	1.01 ± 0.039
AGTAAAATT	0.9865 ± 0.0036
TTAATTGTTC	1.06 ± 0.068
TGGTTGAGTT	0.973 ± 0.021
TGACTACGCG	1.18 ± 0.02
GAGAGGAGGG	0.944 ± 0.049
AAAGATAATG	1.003 ± 0.0091
CAAAGTTGGT	0.994 ± 0.05
CCAAATTGGG	1.016 ± 0.0048
TCGTTTTGAC	1.02 ± 0.023
GACGGGGGTA	1.04 ± 0.043
GCGTATGTAC	1.212 ± 0.0081

Sequence	switch fluorescence ratio
AATTGGGCAG	0.9971 ± 0.0038
GGGGGAGAAA	1.02 ± 0.033
TCTCTTAAGT	0.989 ± 0.012
CGTTCCAGGC	1.083 ± 0.0064
TTAGCTATCT	1.04 ± 0.021
CGGAGTAACG	1.04 ± 0.03
TTAGGTGGAA	0.976 ± 0.012
TATGGTTTAA	0.975 ± 0.042
CAGTGAGCTC	0.981 ± 0.022
AGGGTCTGAG	1.01 ± 0.026
GATCGGGCTA	0.9664 ± 0.0014
TCTCATAGGT	1.04 ± 0.038
GACCGGACAT	0.996 ± 0.013
TTTGTGCGCA	1.07 ± 0.08
GGGTGTAAAA	1 ± 0.022
GCTCAAGTGC	1.07 ± 0.032
GAGGGGTGAG	1.01 ± 0.041
TACAAATTGA	1.02 ± 0.021
ATGCGGTCCT	1.02 ± 0.016
GTTTATGTTA	1.017 ± 0.0018
GGCACTATCC	1.09 ± 0.07
GAGGTTTCGT	0.988 ± 0.02
TTCAACGGGG	0.9948 ± 0.0039
GTGACGGGGG	1.02 ± 0.029
GGGGGATTCT	1.02 ± 0.011
TTATCGAGGG	0.989 ± 0.03

Sequence	switch fluorescence ratio
ATCTACCATG	1.03 ± 0.04
CGGGGAAACA	0.9943 ± 0.0077
TATAAGTAGT	0.956 ± 0.011
GTGGGATATA	0.995 ± 0.049
GGGGTCTAAA	1.009 ± 0.0063
GAGAAGAGGA	0.9918 ± 0.0021
GCGAACGCGC	1.27 ± 0.011
ACCAGGGGGT	1.05 ± 0.09
TGCGAAAGGA	1.01 ± 0.016
CCTATATACG	1.13 ± 0.042
GCATATGGCT	1 ± 0.031
GCTGCAGCGC	1.005 ± 0.0042
GGGGCGGACG	0.995 ± 0.047
AGGGGCGTGG	1.01 ± 0.046
GAAGGGGCGA	0.972 ± 0.018
GTCGGATAGT	0.996 ± 0.013
TTGGTTTTTC	1.01 ± 0.025
CATGGTCATG	1 ± 0.017
TTTTTTTAGC	1.03 ± 0.064
ATTAGGAATG	1.01 ± 0.027
ATCTAGAGGA	0.985 ± 0.023
GACGGAGTCG	0.997 ± 0.03
AGTTTTTGCT	0.9736 ± 0.0065
